Experimental data as given in patent US20050113304A1.

Molecular target: Botulinum toxin B (UniProt P10844)
Assay: cell-based or functional assay

Row | Substance | inhibition of BttxB endoprotease activity (cleavage of VAMP2 55-94, RP-HPLC) [nM] | inhibition of BttxB activity relative to B-I (% as effective as B-I)
1 | Buforin I (peptide) | 1000 | –
2 | Buforin II (peptide) | – | 25
